The source of these data is patent publication US20160169885A1.

For series [1], the target named is Ac-N-Asp-Gly-Asp-Ala-Gly-Tyr-Ala-Gly-Leu-Arg-Gly-Ala-Gly-diamino-ethyl-Bodipy FL. Nature of the series: cell-based or functional assay.
In series [2] the test system is Ac-N-Asp-Gly-Asp-Ala-Gly-Tyr-Ala-Gly-Leu-Arg-Gly-Ala-Gly-diamino-ethyl-Bodipy FL.

Consider “bovine pancreatic trypsin (from UniProt P00760 24-246) (enzyme)”, for which, in series [1], the detection limit of the cleavage products in whole rat blood (reaction in 1×PBS, then mixed with inhibitor-treated blood), agarose gel stood at 50 nM.
Consider bovine pancreatic α-chymotrypsin, for which the “cleavage of the substrate, agarose gel electrophoresis, 1×PBS” value in series [2] was “after cleavage by α-chymotrypsin, migrates as two bands toward the cathode, representing a primary ... and a secondary ... α-chymotrypsin cleavage product”.
